# From patent US20250129156A1 (AKESO BIOPHARMA, published 2025)
# T1: TGF-β2 (UniProt P61812 303-414)
# T1 construct: Bought protein; also called TGF-β2 protein
# T1 sequence (looked up): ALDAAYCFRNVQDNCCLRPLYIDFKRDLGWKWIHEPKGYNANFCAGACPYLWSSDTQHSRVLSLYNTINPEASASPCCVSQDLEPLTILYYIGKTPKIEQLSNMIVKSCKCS
# Columns and labels:
# TGF-β1 [1] = target: T2, TGF-β1 (human, UniProt P01137 279-390); test: indirect ELISA, TGF-β1 coated at 1 µg/mL
# T2 construct: Bought protein; also called human TGF-β1; TGF-β1 protein
# TGF-β2 = target: T1, TGF-β2; test: indirect ELISA, TGF-β2 coated at 2 µg/mL
# TGF-β1 [2] = target: T2, TGF-β1; test: competition ELISA vs TGF-βRII-His-Biotin 0.01 µg/mL on coated TGF-β1
binder,measurement,setting,value
"TGF-βRII-mFc (Fc fusion, UniProt P37173 23-159, looked up, not shown: a dimerising Fc or GST, also called TGF-βR2-mFc) TIPPHVQKSVNNDMIVTDNNGAVKFPQLCKFCDVRFSTCDNQKSCMSNCSITSICEKPQEVCVAVWRKNDENITLETVCHDPKLPYHDFILEDAASPKCIMKEKKKPGETFFMCSCSSDECNDNIIFSEEYNTSNPD",EC50,TGF-β1 [1],0.356 nM
same,EC50,TGF-β2,1.03 nM
same,EC50,TGF-β1 [2],6.47 nM
